Experimental data from publication doi:10.1101/2025.10.24.684426 (bioRxiv, 2025).

T1: EhPHDK (PH domain containing protein kinase), full-length recombinant protein (E. histolytica, UniProt C4M4G9 1-433)
T1 sequence (looked up): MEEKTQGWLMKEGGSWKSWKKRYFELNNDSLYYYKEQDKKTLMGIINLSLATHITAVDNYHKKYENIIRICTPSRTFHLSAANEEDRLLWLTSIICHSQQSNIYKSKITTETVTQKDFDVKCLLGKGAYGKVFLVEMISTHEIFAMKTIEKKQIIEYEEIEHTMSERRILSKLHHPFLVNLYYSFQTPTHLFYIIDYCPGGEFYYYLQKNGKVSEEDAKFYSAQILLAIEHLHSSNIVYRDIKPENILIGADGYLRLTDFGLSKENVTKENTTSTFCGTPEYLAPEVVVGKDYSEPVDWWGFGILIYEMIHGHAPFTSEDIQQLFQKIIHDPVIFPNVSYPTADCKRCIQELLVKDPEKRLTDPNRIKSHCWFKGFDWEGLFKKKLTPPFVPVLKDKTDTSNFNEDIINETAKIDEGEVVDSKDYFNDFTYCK

B1: EhCaBP1 (calcium binding protein 1), recombinant (natural protein, E. histolytica, UniProt P38505 1-134, looked up)
chain: MAEALFKEIDVNGDGAVSYEEVKAFVSKKRAIKNEQLLQLIFKSIDADGNGEIDQNEFAKFYGSIQGQDLSDDKIGLKVLYKLMDVDGDGKLTKEEVTSFFKKHGIEKVAEQVMKADANGDGYITLEEFLEFSL
B2: EhPHDK Peptide 2 (hinge region, IQ motif-like sequence) (peptide)
peptide: IYKSKITTETVTQKD

Assays:
[1] = target: T1, EhPHDK (PH domain containing protein …); assay: BLI
[2] = target: B1; assay: BLI

| Kd [1] [µM] | Kd [2] [µM] | Binder |
| --- | --- | --- |
| 32 |  | B1 |
|  | 243 | B2 |
